To fix the notation:
T1: mouse placenta growth factor (PlGF-2) (mouse, UniProt P49764 19-158, limits assumed)
T1 construct: also called murine PlGF-2
T1 sequence (looked up): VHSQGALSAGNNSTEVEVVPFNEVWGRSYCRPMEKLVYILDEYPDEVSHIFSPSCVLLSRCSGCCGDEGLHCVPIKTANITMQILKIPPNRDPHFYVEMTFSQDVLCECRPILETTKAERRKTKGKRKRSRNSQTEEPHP

T2: murine VEGF-D (mVEGF-D) (mouse, UniProt P97946 98-206, limits assumed)
T2 sequence (looked up): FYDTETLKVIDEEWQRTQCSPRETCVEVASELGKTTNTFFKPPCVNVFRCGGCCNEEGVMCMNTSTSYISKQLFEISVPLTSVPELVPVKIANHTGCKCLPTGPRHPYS

T3: human placenta growth factor (PlGF-2) (human, UniProt P49763-3 19-170, limits assumed)
T3 construct: also called human PlGF-2
T3 sequence (looked up): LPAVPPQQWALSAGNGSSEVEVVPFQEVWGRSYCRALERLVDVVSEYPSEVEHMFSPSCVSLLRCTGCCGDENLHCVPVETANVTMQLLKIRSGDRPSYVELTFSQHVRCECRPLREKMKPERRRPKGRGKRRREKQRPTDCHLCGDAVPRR

T4: human VEGF-B (human, UniProt P49765-2 22-188, limits assumed)
T4 sequence (looked up): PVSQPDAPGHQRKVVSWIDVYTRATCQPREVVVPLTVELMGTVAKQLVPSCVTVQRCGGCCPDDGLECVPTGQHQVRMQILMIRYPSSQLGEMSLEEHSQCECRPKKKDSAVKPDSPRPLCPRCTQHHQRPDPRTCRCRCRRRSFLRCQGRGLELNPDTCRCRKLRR

B1: murine VEGF (mVEGF) (ligand, mouse, UniProt Q00731-2 27-190, looked up)
chain: APTTEGEQKSHEVIKFMDVYQRSYCRPIETLVDIFQEYPDEIEYIFKPSCVPLMRCAGCCNDEALECVPTSESNITMQIMRIKPHQSQHIGEMSFLQHSRCECRPKKDRTKPENHCEPCSERRKHLFVQDPQTCKCSCKNTDSRCKARQLELNERTCRCDKPRR
notes: also called mouse VEGF
B2: hVEGF displayed on phage (hVEGF1-109, wild type) (ligand, human, UniProt P15692 207-315, looked up)
chain: APMAEGGGQNHHEVVKFMDVYQRSYCHPIETLVDIFQEYPDEIEYIFKPSCVPLMRCGGCCNDEGLECVPTEESNITMQIMRIKPHQGQHIGEMSFLQHNKCECRPKKD
notes: Phage fusion partner not described; also called hVEGF displaying phage; hVEGF-phage
B3: second domain of Flt-1 (Flt-1D2) (receptor, UniProt P17948 129-229, looked up)
chain: SDTGRPFVEMYSEIPEIIHMTEGRELVIPCRVTSPNITVTLKKFPLDTLIPDGKRIIWDSRKGFIISNATYKEIGLLTCEATVNGHLYKTNYLTHRQTNTI
notes: domain: second domain of Flt-1 (Flt-1D2)
B4: G6 Fab (Fab, V domains shown)
VH: EVQLVESGGGLVQPGGSLRLSCAASGFTISDYWIHWVRQAPGKGLEWVAGITPAGGYTYYADSVKGRFTISADTSKNTAYLQMNSLRAEDTAVYYCARFVFFLPYAMDYWGQGTLVTVSS
VL: DIQMTQSPSSLSASVGDRVTITCRASQDVSTAVAWYQQKPGKAPKLLIYSASFLYSGVPSRFSGSGSGTDFTLTISSLQPEDFATYYCQQSYTTPPTFGQGTKVEIKR
notes: Purified Fab from E. coli in most assays; also called Fab G6; FabG6

Assay [1] has as its target B1. Nature of the assay: BIAcore or solution binding ELISA, Fab. Background: In SPR one partner is held on a chip, and binding of the other changes the refractive index at the surface.
In assay [2] the target is T5, full extracellular domain (ECD) of KDR (UniProt P35968 20-764, limits assumed).
T5 construct: extracellular domain; also called KDR ECD
Nature of the assay: phage-blocking assay: receptor fragment at increasing concentration competes with phage clones for mVEGF-coated wells.

For assay [3], the target named is T6, Flt-1 ECD fragment (Ig domain1-5) (Flt-1D1-5) (UniProt P17948 27-553, limits assumed).
T6 construct: domain: Flt-1 ECD fragment (Ig domain1-5); also called Flt-1 receptor
Briefly: phage ELISA with wild type hVEGF phage. (An ELISA detects its analyte on a solid surface through an enzyme-linked reagent.)

Assay [4] addresses B1. Nature of the assay: phage-blocking assay: receptor fragment at increasing concentration competes with phage clones for mVEGF-coated wells.
For assay [5], the target named is T1, mouse placenta growth factor (PlGF-2). Briefly: direct ELISA on coated homolog (2 ug/ml) with increasing G6 Fab.
In another assay the target is T2, murine VEGF-D (mVEGF-D). The description is as above.
Assay [6] concerns the target T3, human placenta growth factor (PlGF-2). The description is as above.
For the next assay, the target named is T4, human VEGF-B. Described as above.

Consider five molecules from patent US20100189719A1 (published 2010).

T6 sequence (P17948 27-553 limits assumed): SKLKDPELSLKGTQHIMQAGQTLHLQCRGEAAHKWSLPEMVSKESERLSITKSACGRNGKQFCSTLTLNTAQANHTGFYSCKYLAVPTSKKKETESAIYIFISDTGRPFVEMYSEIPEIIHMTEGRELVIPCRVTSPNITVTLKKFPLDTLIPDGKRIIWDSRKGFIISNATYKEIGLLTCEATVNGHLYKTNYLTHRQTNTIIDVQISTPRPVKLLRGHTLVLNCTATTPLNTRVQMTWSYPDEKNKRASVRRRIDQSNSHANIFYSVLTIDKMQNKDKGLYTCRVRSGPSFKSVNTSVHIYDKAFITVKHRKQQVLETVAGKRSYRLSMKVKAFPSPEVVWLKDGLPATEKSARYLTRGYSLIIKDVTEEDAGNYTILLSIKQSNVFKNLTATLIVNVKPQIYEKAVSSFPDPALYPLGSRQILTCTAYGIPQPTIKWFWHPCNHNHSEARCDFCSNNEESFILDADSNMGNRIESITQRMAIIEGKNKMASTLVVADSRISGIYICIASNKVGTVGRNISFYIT
T5 sequence (P35968 20-764 limits assumed): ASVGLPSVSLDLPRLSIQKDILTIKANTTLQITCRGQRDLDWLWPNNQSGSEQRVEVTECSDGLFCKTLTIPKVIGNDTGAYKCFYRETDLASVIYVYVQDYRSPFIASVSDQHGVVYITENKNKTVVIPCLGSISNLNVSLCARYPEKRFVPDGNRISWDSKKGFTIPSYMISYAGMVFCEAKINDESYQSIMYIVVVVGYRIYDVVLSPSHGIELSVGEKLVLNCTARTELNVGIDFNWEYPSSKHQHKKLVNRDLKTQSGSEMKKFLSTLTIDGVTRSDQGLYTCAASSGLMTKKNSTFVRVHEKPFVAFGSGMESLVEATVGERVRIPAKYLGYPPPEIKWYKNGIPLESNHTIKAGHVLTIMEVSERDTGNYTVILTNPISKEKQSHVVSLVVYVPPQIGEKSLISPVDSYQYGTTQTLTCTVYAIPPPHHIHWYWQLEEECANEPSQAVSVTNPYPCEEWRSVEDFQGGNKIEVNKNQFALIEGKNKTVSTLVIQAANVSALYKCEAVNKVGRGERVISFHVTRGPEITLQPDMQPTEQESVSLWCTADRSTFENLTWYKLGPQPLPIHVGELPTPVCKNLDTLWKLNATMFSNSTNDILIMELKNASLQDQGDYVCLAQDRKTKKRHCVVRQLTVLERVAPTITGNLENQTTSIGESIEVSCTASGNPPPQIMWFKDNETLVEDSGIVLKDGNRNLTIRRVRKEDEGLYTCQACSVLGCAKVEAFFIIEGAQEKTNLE

As to Y0317 Fab, the affinity with murine VEGF (mVEGF) [1] amounted to 350 nM.
B1: the binding result in assay [2] is “binds”.
Regarding B2, the binding result in assay [3] was “binds”.
Consider B3, for which the binding result with murine VEGF (mVEGF) [4] is listed as “binds”.
Consider B4, for which the binding result (in assay [5]; in the assay with murine VEGF-D (mVEGF-D); in assay [6]; with human VEGF-B) was “no binding” each time.
